Data from FireProtDB (doi:10.1021/bi0362267).

B1: Ribonuclease, P00648 (parent)
chain: MMKMEGIALKKRLSWISVCLLVLVSAAGMLFSTAAKTETSSHKAHTEAQVINTFDGVADYLQTYHKLPDNYITKSEAQALGWVASKGNLADVAPGKSIGGDIFSNREGKLPGKSGRTWREADINYTSGFRNSDRILYSSDWLIYKTTDHYQTFTKIR

Variants of: B1
Details: Bacillus amyloliquefaciens, pH 6.3, Thermal, CD, Mes 50 mM, structure 1BNI, whole UniProt chain shown; for ddG of mutation (higher = less stable) / unfolding free energy: 25 °C

Variant	ddG of mutation (higher = less stable) [kJ/mol]	unfolding free energy [kJ/mol]	Tm [°C]	change of melting temperature, mutant - wild type (higher = more stable) [°C]	unfolding enthalpy (van 't Hoff) [kJ/mol]
MMKMEGIALKKRLSWISVCLLVLVSAAGMLFSTAAKTETSSHKAHTEAQVINTFDGVADYLQTYHKLPDNYITKSEAQALGWVASKGNLADVAPGKSIGGDIFSNREGKLPGKSGRTWREADINYTSGFRNSDRILYSSDWLIYKTGDHYQTFTKIR [T147G]	11.7	28			
MMKMEGIALKKRLSWISVCLLVLVSAAGMLFSTAAKTETSSHKAHTEAQVINTFDGVADYLQTYHKLPDNYITKSEAQALGWVASKGNLADVAPGKSIGGDIFSNREGKLPGKSGRTWGEADINYTSGFRNSDRILYSSDWLIYKTTDHYQTFTKIR [R119G]	10.5	29.3	46.5	-5.7	514
MMKMEGIALKKRLSWISVCLLVLVSAAGMLFSTAAKTETSSHKAHTEAQVINTFDGVADYLQTYHKLPDNYITKSEAQALGWVASKGNLADVAPGKSIGGDGFSNREGKLPGKSGRTWREADINYTSGFRNSDRILYSSDWLIYKTTDHYQTFTKIR [I102G]	13	26.8			
MMKMEGIALKKRLSWISVCLLVLVSAAGMLFSTAAKTETSSHKAHTEAQVINTFDGVADYLQTYHKLPDNYITKSEAQALGWVASKGNLADVAPGKSIGGDIFSNREGKLPGKSGRTWREADINYTSGFRNSDRILYSSDWLIGKTTDHYQTFTKIR [Y144G]	27.6	12.1	34.4	-17.9	429
MMKMEGIALKKRLSWISVCLLVLVSAAGMLFSTAAKTETSSHKAHTEAQVINTFDGVADYLQTYHKLPDNYITKSEAQALGWVASKGNLADVAPGKSIGGDIFSNREGKLPGKSGRTWREADINYTSGFRNSDRGLYSSDWLIYKTTDHYQTFTKIR [I135G]	31	8.79	31.4	-20.8	420
MMKMEGIALKKRLSWISVCLLVLVSAAGMLFSTAAKTETSSHKAHTEAQVINTFDGVADYLQTGHKLPDNYITKSEAQALGWVASKGNLADVAPGKSIGGDIFSNREGKLPGKSGRTWREADINYTSGFRNSDRILYSSDWLIYKTTDHYQTFTKIR [Y64G]			42	-10.3	491
MMKMEGIALKKRLSWISVCLLVLVSAAGMLFSTAAKTETSSHKAHTEAQVINTFDGVADGLQTYHKLPDNYITKSEAQALGWVASKGNLADVAPGKSIGGDIFSNREGKLPGKSGRTWREADINYTSGFRNSDRILYSSDWLIYKTTDHYQTFTKIR [Y60G]	26.8	13	36.6	-15.6	388
MMKMEGIALKKRLSWISVCLLVLVSAAGMLFSTAAKTETSSHKAHTEAQVINTFDGVADYLQTYHKLPDNYITKSEAQALGWVASKGNLADVAPGKSIGGDIFSNREGKLPGKSGRTWREADINYTSGFRNSDRILYSSDWGIYKTTDHYQTFTKIR [L142G]	19.7	20.1	43.1	-9.1	412
MMKMEGIALKKRLSWISVCLLVLVSAAGMLFSTAAKTETSSHKAHTEAQVINTFDGVAAYLQTYHKLPDNYITKSEAQALGWVASKGNLADVAPGKSIGGDIFSNREGKLPGKSGRTWREADINYTSGFRNSDRILYSSDWLIYKTTDHYQTFTKIR [D59A]	-4.6	44.4	51.2	-1	639
MMKMEGIALKKRLSWISVCLLVLVSAAGMLFSTAAKTETSSHKAHTEAQVINTFDGVAGYLQTYHKLPDNYITKSEAQALGWVASKGNLADVAPGKSIGGDIFSNREGKLPGKSGRTWREADINYTSGFRNSDRILYSSDWLIYKTTDHYQTFTKIR [D59G]	5.02	34.7	50	-2.3	538
MMKMEGIALKKRLSWISVCLLVLVSAAGMLFSTAAKTETSSHKAHTEAQVINTFDGVADYLQTYHKLPDNYITKSEAQALGWVASKGNLADVAPGKSIGGDIFSNREGKLPGKSGRTWREADINYTSGFRNSDRIGYSSDWLIYKTTDHYQTFTKIR [L136G]	29.3	10.5	43.5	-8.7	245
MMKMEGIALKKRLSWISVCLLVLVSAAGMLFSTAAKTETSSHKAHTEAQVINTFDGVADYLGTYHKLPDNYITKSEAQALGWVASKGNLADVAPGKSIGGDIFSNREGKLPGKSGRTWREADINYTSGFRNSDRILYSSDWLIYKTTDHYQTFTKIR [Q62G]	6.69	33.1	50.2	-2	515
MMKMEGIALKKRLSWISVCLLVLVSAAGMLFSTAAKTETSSHKAHTEAQVINTFDGVADYLATYHKLPDNYITKSEAQALGWVASKGNLADVAPGKSIGGDIFSNREGKLPGKSGRTWREADINYTSGFRNSDRILYSSDWLIYKTTDHYQTFTKIR [Q62A]	0.837	38.9	51.4	-0.9	572
MMKMEGIALKKRLSWISVCLLVLVSAAGMLFSTAAKTETSSHKAHTEAQVINTFDGVADYLQTYHKLPDNYITKSEAQALGWVASKGNLADVAPGKSIGGDIFSNREGKLPGKSGRTWRGADINYTSGFRNSDRILYSSDWLIYKTTDHYQTFTKIR [E120G]			39.5	-12.7	421
MMKMEGIALKKRLSWISVCLLVLVSAAGMLFSTAAKTETSSHKAHTEAQVINTFDGVADYLQTYHKLPDNYITKSEAQALGWVASKGNLADVAPGKSIGGDIFSNREGKLPGKSGRTWREADINYTSGFRNSDRILYSSDWLGYKTTDHYQTFTKIR [I143G]			36.5	-15.7	461
